From patent publication US9872893B2, “Endolysins active against Staphylococcus bacteria, pharmaceutical compositions, and methods relating thereto” (priority 2014, dated 2018)

How the values were obtained:
[1] = test system: Streptococcus pneumoniae, ATCC BAA-334; test: plate lysis assay (spectrum of lytic activity); assay type: cell-based; design: key: strong lytic zone = ++; weak lytic zone = +; no lytic zone = −; details: 6 μg
Procedure: (§1) The PlyGRCS spectrum of lytic activity was performed (Schmelcher M et al. (2012) Chimeric phage lysins act synergistically with lysostaphin to kill mastitis-causing Staphylococcus aureus in murine mammary glands. Appl Environ Microbiol 78(7):2297-305) with minor modifications. Bacterial cells were diluted in sterile PBS to an OD600=1, and 100 μl was spread on each plate. 10 μl spots (600 μg/ml) of PlyGRCS or CHAPGRCS were applied. Plates were incubated overnight at 37° C. Strength of lytic zones was defined qualitatively.

[2] = test system: Staphylococcus aureus, NRS-385; test: plate lysis assay (spectrum of lytic activity); assay type: cell-based; design: key: strong lytic zone = ++; weak lytic zone = +; no lytic zone = −; details: 6 μg; S. aureus NRS-385, MRSA
Procedure: as §1

[3] = test system: Streptococcus equi, ATCC 9528; test: plate lysis assay (spectrum of lytic activity); assay type: cell-based; design: key: strong lytic zone = ++; weak lytic zone = +; no lytic zone = −; details: 6 μg
Procedure: as §1

[4] = test system: Enterococcus facealis, EF24; test: plate lysis assay (spectrum of lytic activity); assay type: cell-based; design: key: strong lytic zone = ++; weak lytic zone = +; no lytic zone = −; details: 6 μg
Procedure: as §1

[5] = test system: stationary phase S. aureus NRS-14; test: turbidity reduction assay (lytic activity); assay type: cell-based, Staphylococcus aureus; details: for decrease in optical density: 15 minutes
Procedure: (§2) Lytic activity was based on turbidity reduction assay (Nelson D C et al. (2012) Endolysins as antimicrobials. Adv Virus Res 83:299-365). Briefly, bacterial cells were centrifuged (4,000 RPM, 5 minutes, 4° C.), re-suspended in buffer and mixed 1:1 (v/v) with endolysin to a final OD600=1. OD600 readings were taken every 15 seconds for 20 minutes at 37° C. Endolysin activity was equated to the Vmax dictated by the linear portion of the resulting killing curve. Each experiment was performed in triplicate.
To determine dose response, PlyGRCS was serially diluted and each dosage (100 μl) was added in triplicate to a 96-well polystyrene microtiter plate (Nest Biotech Co, Ltd) just before addition of bacterial cells (100 μl) according to the turbidity reduction assay described above. For optimum pH determination, bacterial cells were suspended in 40 mM boric acid/phosphoric acid (BP) buffer, pH 3-11, and were challenged against PlyGRCS. The influence of NaCl on PlyGRCS activity was tested in BP buffer at the experimentally determined pH optimum using the same assay. The effect of divalent cations was determined using the turbidity reduction assay with several modifications. First, PlyGRCS was incubated at room temperature in PBS or PBS supplemented with 5 mM EDTA for 10 minutes. Second, the EDTA-treated samples received either no further treatment, or were supplemented with 6 mM CaCl2 or 6 mM MgCl2. Finally, the lytic active of the samples was then immediately assayed and compared to PlyGRCS in PBS prior to EDTA inactivation. Kinetic stability was evaluated (Son B et al. (2012) Characterization of LysB4, an endolysin from the Bacillus cereus-infecting bacteriophage B4. BMC Microbiol 12:33) with minor modifications. Lytic assays were performed in optimal conditions after PlyGRCS was incubated at indicated temperatures for 30 minutes and subsequently recovered on ice for 5 minutes.

[6] = test system: S. aureus cell walls (purified peptidoglycan); details: 50 μg/ml, one hour, 37° C.
From the text: To determine an increase in free amine groups, the trinitrophenylation reaction was used, originally described by Satake et al. and modified by Mokrasch (Satake M et al. (1960) Incorporation of leucine into microsomalprotein by a cell-free system of guinea-pig brain. Biochim Biophys Acta 41:366-7; Mokrasch L (1967) Use of 2,4,6-trinitrobenzenesulfonic acid for the coestimation of amines, amino acids, and proteins in mixtures. Anal Biochem 18:64-71). […] Samples were pelleted and the supernatant was filtered through a 0.22 μM filter. The sterile filtrate was added to sodium tetraborate and trinitrobenzenesulfonic acid and incubated for 30 minutes at room temperature. Samples were read at OD420. Lysine was used as a standard.

[7] = test system: stationary phase S. aureus NRS-14; test: kinetic stability (lytic assay after incubation at indicated temperatures); assay type: cell-based, Staphylococcus aureus; details: 25 μg/ml
Procedure: as §2
To determine dose response, PlyGRCS was serially diluted and each dosage (100 μl) was added in triplicate to a 96-well polystyrene microtiter plate (Nest Biotech Co, Ltd) just before addition of bacterial cells (100 μl) according to the turbidity reduction assay described above. For optimum pH determination, bacterial cells were suspended in 40 mM boric acid/phosphoric acid (BP) buffer, pH 3-11, and were challenged against PlyGRCS. The influence of NaCl on PlyGRCS activity was tested in BP buffer at the experimentally determined pH optimum using the same assay. The effect of divalent cations was determined using the turbidity reduction assay with several modifications. […] Kinetic stability was evaluated (Son B et al. (2012) Characterization of LysB4, an endolysin from the Bacillus cereus-infecting bacteriophage B4. BMC Microbiol 12:33) with minor modifications. […]

[8] = test system: SA113 ΔtagO cell walls (staphylococcal peptidoglycan); test: cleavage analysis by mass spectrometry; assay type: biochemical, Staphylococcus aureus; details: 50 μg/ml, 18 hours, ESI-MS of digest
Procedure: Briefly, SA113 ΔtagO cell walls (Atilano M L et al. (2010) Teichoic acids are temporal and spatial regulators of peptidoglycan cross-linking in Staphylococcus aureus. Proc Natl Acad Sci USA 107(44):18991-6; Weidenmaier C et al. (2004) Role of teichoic acids in Staphylococcus aureus nasal colonization, a major risk factor in nosocomial infections. Nat Med 10(3):243-5) were digested in 25 mM Tris, 200 mM NaCl, pH 7.4 at 37° C. for 18 hours with 50 μg/ml of PlyGRCS, filtered through 5000-MW cutoff Vivaspin 500 units (Sartorius North America Inc., Bohemia, N.Y.), and desalted using C18 Zip Tips (Millipore, Zug, Switzerland). Controls included peptidoglycan digested with the amidase domain of 2638A, a known N-acetylmuramoyl-L-alanine amidase, or undigested peptidoglycan. To further define the PlyGRCS cut site, double digests with PlyGRCS and a truncation construct containing only the CHAP domain of LysK (CHAP-K), a D-alany-glycyl endopeptidase were performed. The samples were eluted from the Zip Tips with 50:50:0.01 (v/v/v) CH3OH:H2O:[…] (pH˜2), and NanoESI-MS analysis was performed on a Q-TOF Ultima API mass spectrometer (Micromass, UK).

[9] = highest dose of 28 to 1.75 μg/ml dose response

B1: PlyGRCS: endolysin of bacteriophage GRCS (ORF15), amino acids 1-250, SEQ ID NO: 5, C-terminal 6× His tag (protein)
chain: MKSQQQAKEWIYKHEGTGVDFDGAYGFQCMDLAVAYVYYITDGKVRMWGNAKDAINNDFKGLATVYENTPSFKPQLGDVAVYTNSQYGHIQCVISGNLDYYTCLEQNWLGGGFDGWEKATIRTHYYDGVTHFIRPKFSASNSNVLETSKVNTFGNWKQNQYGTYYRNENATFTCGFLPIFARVGSPKLSEPNGYWFQPNGYTPYDEVCLSDGLVWIGYNWQGTRYYLPVRQWNGKTGNSYSIGLPWGVFS
modifications: C-terminal 6xHis tag; Synthetically generated polypeptide (PlyGRCS phage (S. aureus))
[1]
  strength of lytic zone: −
[2]
  strength of lytic zone: +
[3]
  strength of lytic zone: −
[4]
  strength of lytic zone: −
[5]; 25 μg/mL
  decrease in optical density: 70%
[5]; 5 mM EDTA then 6 mM CaCl2
  lytic activity of EDTA-treated enzyme with excess CaCl2, compared to prior to EDTA treatment: nearly twice the lytic activity
[5]; 5 mM EDTA then 6 mM MgCl2
  lytic activity of EDTA-treated enzyme with magnesium: mimicked that of the EDTA-treated sample
[5]; 5 mM EDTA, 10 minutes
  lytic activity after EDTA treatment: devoid of lytic activity
[5]; 500 mM NaCl, BP buffer pH 7.0
  decrease in activity by NaCl: ~35%
[5]; BP buffer, pH range 3.0 to 11.0
  optimal pH for lytic activity: 7.0
[5]; [9]
  time to 50% decrease in optical density: < 10 min
  decrease in optical density: 70%
[6]
  free amine release (amidase/endopeptidase activity): free amines were detected
[7]; after 30 minutes at 4° C. to 37° C.
  residual lytic activity: > 90%
[7]; after 30 minutes at ≧40° C.
  lytic activity after heating (in words): lytic activity was not observed
[8]
  hydrolytic activities (cleavage specificity): both N-acetylmuramoyl-L-alanine amidase and D-alanyl-glycyl endopeptidase hydrolytic activities
